According to paper PMC3359404:

Experiments:
Assay in all cases: purified protein
Conditions in all cases: 10 mM pyruvate, 0.3 mM NADPH, 150 mM PIPES pH 6.6, room temperature
N[C@@H](CCO)C(=O)O = test system: N[C@@H](CCO)C(=O)O
N=C(N)NOCC[C@H](N)C(=O)O = test system: N=C(N)NOCC[C@H](N)C(=O)O
NC(=O)CC[C@H](N)C(=O)O = test system: NC(=O)CC[C@H](N)C(=O)O
CSCC[C@H](N)C(=O)O = test system: CSCC[C@H](N)C(=O)O
[1] = test system: N[C@@H](Cc1c[nH]cn1)C(=O)O
C[S+](C)CC[C@H](N)C(=O)O = test system: C[S+](C)CC[C@H](N)C(=O)O
NCC(=O)O = test system: NCC(=O)O
N[C@@H](CCS)C(=O)O = test system: N[C@@H](CCS)C(=O)O
N[C@@H](CS)C(=O)O = test system: N[C@@H](CS)C(=O)O

Ocs (His6-Ocs), octopine synthase (Agrobacterium tumefaciens (strain 15955))
Km (N[C@@H](CCO)C(=O)O): 15 ± 3 mM
kcat (N[C@@H](CCO)C(=O)O): 30 s⁻¹
kcat/Km (N[C@@H](CCO)C(=O)O): 2000 M⁻¹ s⁻¹
Km (N=C(N)NOCC[C@H](N)C(=O)O): 2.8 ± 0.5 mM
kcat (N=C(N)NOCC[C@H](N)C(=O)O): 16.7 s⁻¹
kcat/Km (N=C(N)NOCC[C@H](N)C(=O)O): 6000 M⁻¹ s⁻¹
Km (NC(=O)CC[C@H](N)C(=O)O): 5.6 ± 0.6 mM
kcat (NC(=O)CC[C@H](N)C(=O)O): 13 s⁻¹
kcat/Km (NC(=O)CC[C@H](N)C(=O)O): 2330 M⁻¹ s⁻¹
Km (CSCC[C@H](N)C(=O)O): 27 ± 6 mM
kcat (CSCC[C@H](N)C(=O)O): 78.3 s⁻¹
kcat/Km (CSCC[C@H](N)C(=O)O): 2830 M⁻¹ s⁻¹
Km [1]: 2.0 ± 0.21 mM
kcat [1]: 20 s⁻¹
kcat/Km [1]: 10000 M⁻¹ s⁻¹
Km (C[S+](C)CC[C@H](N)C(=O)O): 0.31 ± 0.04 mM
kcat (C[S+](C)CC[C@H](N)C(=O)O): 0.817 s⁻¹
kcat/Km (C[S+](C)CC[C@H](N)C(=O)O): 2670 M⁻¹ s⁻¹
Km (NCC(=O)O): 30 ± 6 mM
kcat/Km (NCC(=O)O): 717 M⁻¹ s⁻¹
Km (N[C@@H](CCS)C(=O)O): 8.9 ± 1.1 mM
kcat (N[C@@H](CCS)C(=O)O): 26.7 s⁻¹
kcat/Km (N[C@@H](CCS)C(=O)O): 3000 M⁻¹ s⁻¹
Km (N[C@@H](CS)C(=O)O): 11 ± 3 mM
kcat (N[C@@H](CS)C(=O)O): 11.2 s⁻¹
kcat/Km (N[C@@H](CS)C(=O)O): 1020 M⁻¹ s⁻¹
